In US20230265151A1, “GIP/GLP1 CO-AGONIST COMPOUNDS” (priority 2020, published 2023):
Changes are numbered by the printed parent chain.

B1: Example 253 (peptide)
peptide: YXEGTXTSDXSIXLDXIAQXKFIXXLIKGGPSSGAPPPS
modifications: Y-Aib-EGT-αMeF(2F)-TSD-2Nal-SI-αMeL-LD-Orn-IAQ-Aib-K((2-[2-(2-Amino-ethoxy)-ethoxy]-acetyl)2-(γ-Glu)-CO-(CH2)12-CO2H)Fl-(D-Glu)-αMeY-LIK((2-[2-(2-Amino-ethoxy)-ethoxy]-acetyl)2-(γ-Glu)-CO-(CH2)12-CO2H)GGPSSGAPPPS-NH2
B2: Example 275 (peptide)
peptide: B1 peptide
modifications: Y-Aib-EGT-αMeF(2F)-TSD-4Pa1-SI-αMeL-LD-Orn-IAQ-Aib-K((2-[2-(2-Amino-ethoxy)-ethoxy]-acetyl)2-(γ-Glu)-(10-(4-carboxyphenoxy)decanoyl))FI-(D-Glu)-αMeY-LIK((2-[2-(2-Amino-ethoxy)-ethoxy]-acetyl)2-(γ-Glu)-(10-(4-carboxyphenoxy)decanoyl))GGPSSGAPPPS-NH2
B3: Example 274 (peptide)
peptide: B1 peptide with K21E, X24K
modifications: Y-Aib-EGT-αMeF(2F)-TSD-4Pa1-SI-αMeL-LD-Orn-IAQ-Aib-EFIK((2-[2-(2-Amino-ethoxy)-ethoxy]-acetyl)2-(γ-Glu)-(10-(4-carboxyphenoxy)decanoyl))-αMeY-LIK((2-[2-(2-Amino-ethoxy)-ethoxy]-acetyl)2-(γ-Glu)-(10-(4-carboxyphenoxy)decanoyl))GGPSSGAPPPS-NH2
B4: Example 256 (peptide)
peptide: B1 peptide with I17K, K21E
modifications: Y-Aib-EGT-αMeF(2F)-TSD-2Nal-SI-αMeL-LD-Orn-K((2-[2-(2-Amino-ethoxy)-ethoxy]-acetyl)2-CO-(CH2)12-CO2H)AQ-Aib-EFI-(D-Glu)-αMeY-LIK((2-[2-(2-Amino-ethoxy)-ethoxy]-acetyl)2-CO-(CH2)12-CO2H)GGPSSGAPPPS-NH2 …
B5: Example 262 (peptide)
peptide: B1 peptide with K21E, X24K
modifications: Y-Aib-EGT-αMeF(2F)-TSD-OMeY-SI-αMeL-LD-Orn-IAQ-Aib-EFIK((2-[2-(2-Amino-ethoxy)-ethoxy]-acetyl)2-(γ-Glu)-CO-(CH2)12-CO2H)-αMeY-LIK((2-[2-(2-Amino-ethoxy)-ethoxy]-acetyl)2-(γ-Glu)-CO-(CH2)12-CO2H)GGPSSGAPPPS-NH2
B6: Example 272 (peptide)
peptide: B1 peptide with I17K, K28E
modifications: Y-Aib-EGT-αMeF(2F)-TSD-hTyr-SI-αMeL-LD-Orn-K((2-[2-(2-Amino-ethoxy)-ethoxy]-acetyl)2-CO-(CH2)12-CO2H)AQ-Aib-K((2-[2-(2-Amino-ethoxy)-ethoxy]-acetyl)2-CO-(CH2)12-CO2H)FI-(D-Glu)-αMeY-LIEGGPSSGAPPPS-NH2 …
B7: Example 259 (peptide)
peptide: B1 peptide with I17K, K28E
modifications: Y-Aib-EGT-αMeF(2F)-TSD-OMeY-SI-αMeL-LD-Orn-K((2-[2-(2-Amino-ethoxy)-ethoxy]-acetyl)2-(γ-Glu)-CO-(CH2)12-CO2H)AQ-Aib-K((2-[2-(2-Amino-ethoxy)-ethoxy]-acetyl)2-(γ-Glu)-CO-(CH2)12-CO2H)FI-(D-Glu)-αMeY-LIEGGPSSGAPPPS-NH2
B8: Example 271 (peptide)
peptide: B1 peptide with I17K, K28E
modifications: Y-Aib-EGT-αMeF(2F)-TSD-Nle-SI-αMeL-LD-Orn-K((2-[2-(2-Amino-ethoxy)-ethoxy]-acetyl)2-CO-(CH2)12-CO2H)AQ-Aib-K((2-[2-(2-Amino-ethoxy)-ethoxy]-acetyl)2-CO-(CH2)12-CO2H)FI-(D-Glu)-αMeY-LIEGGPSSGAPPPS-NH2
B9: Example 255 (peptide)
peptide: B1 peptide with I17K, K28E
modifications: Y-Aib-EGT-αMeF(2F)-TSD-2Nal-SI-αMeL-LD-Orn-K((2-[2-(2-Amino-ethoxy)-ethoxy]-acetyl)2-CO-(CH2)12-CO2H)AQ-Aib-K((2-[2-(2-Amino-ethoxy)-ethoxy]-acetyl)2-CO-(CH2)12-CO2H)FI-(D-Glu)-αMeY-LIEGGPSSGAPPPS-NH2 …
B10: Example 263 (peptide)
peptide: B1 peptide
modifications: Y-Aib-EGT-αMeF(2F)-TSD-OMeY-SI-αMeL-LD-Orn-IAQ-Aib-K((2-[2-(2-Amino-ethoxy)-ethoxy]-acetyl)2-(γ-Glu)-CO-(CH2)12-CO2H)FI-(D-Glu)-αMeY-LIK((2-[2-(2-Amino-ethoxy)-ethoxy]-acetyl)2-(γ-Glu)-CO-(CH2)12-CO2H)GGPSSGAPPPS-NH2
B11: Example 277 (peptide)
peptide: B1 peptide with I17K, K28E
modifications: Y-Aib-EGT-αMeF(2F)-TSD-OMeY-SI-αMeL-LD-Orn-K((2-[2-(2-Amino-ethoxy)-ethoxy]-acetyl)2-(γ-Glu)-(10-(4-carboxyphenoxy)decanoyl))AQ-Aib-K((2-[2-(2-Amino-ethoxy)-ethoxy]-acetyl)2-(γ-Glu)-(10-(4-carboxyphenoxy)decanoyl))FI-(D-Glu)-αMeY-LIEGGPSSGAPPPS-NH2
B12: Example 260 (peptide)
peptide: B1 peptide with I17K, K21E
modifications: Y-Aib-EGT-αMeF(2F)-TSD-OMeY-SI-αMeL-LD-Orn-K((2-[2-(2-Amino-ethoxy)-ethoxy]-acetyl)2-(γ-Glu)-CO-(CH2)12-CO2H)AQ-Aib-EFI-(D-Glu)-αMeY-LIK((2-[2-(2-Amino-ethoxy)-ethoxy]-acetyl)2-(γ-Glu)-CO-(CH2)12-CO2H)GGPSSGAPPPS-NH2
B13: Example 266 (peptide)
peptide: B1 peptide with I17K, K21E
modifications: Y-Aib-EGT-αMeF(2F)-TSD-OMeY-SI-αMeL-LD-Orn-K((2-[2-(2-Amino-ethoxy)-ethoxy]-acetyl)2-CO-(CH2)12-CO2H)AQ-Aib-EFI-(D-Glu)-αMeY-LIK((2-[2-(2-Amino-ethoxy)-ethoxy]-acetyl)2-CO-(CH2)12-CO2H)GGPSSGAPPPS-NH2 …

Assays:
Assay in all cases: cell-based or functional assay
[1] = biological target: T1, human GIP receptor (human, UniProt P48546 22-466)
T1 sequence (looked up): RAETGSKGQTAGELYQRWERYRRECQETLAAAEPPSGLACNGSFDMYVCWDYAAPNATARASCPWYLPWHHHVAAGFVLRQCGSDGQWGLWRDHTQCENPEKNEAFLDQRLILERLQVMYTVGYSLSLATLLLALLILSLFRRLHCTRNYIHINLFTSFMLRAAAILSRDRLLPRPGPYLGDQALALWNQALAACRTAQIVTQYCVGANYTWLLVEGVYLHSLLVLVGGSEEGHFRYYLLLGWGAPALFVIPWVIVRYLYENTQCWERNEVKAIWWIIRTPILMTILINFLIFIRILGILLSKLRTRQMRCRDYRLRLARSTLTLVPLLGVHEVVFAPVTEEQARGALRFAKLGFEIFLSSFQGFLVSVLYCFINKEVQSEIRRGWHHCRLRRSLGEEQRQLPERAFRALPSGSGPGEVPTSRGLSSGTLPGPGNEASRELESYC

[2] = biological target: human GLP-1 receptor (human, UniProt P43220 24-463)
[3] = biological target: human glucagon receptor (human, UniProt P47871 26-477)

Binder	cAMP EC50 (1.0% HSA) [1] [nM]	cAMP EC50 (1.0% HSA) [2] [nM]	cAMP EC50 (1.0% HSA) [3] [nM]	cAMP Emax (1.0% HSA) [1] [%]
B1	21.7	192	> 9950	
B2	0.926	33.5	> 9950	
B3	1.16	32.9	> 9950	
B4	1.5	12.6	> 9950	75.3
B5	8.15	69.8	> 9950	79.7
B6	0.561	4.72	> 9950	81.2
B7	2.34	28.9	> 9950	66.4
B8	0.767	10.2	> 9950	
B9	2.27	13.7	> 9950	
B10	5.91	56.7	> 9950	
B11	0.962	12.2	> 9950	
B12	3.27	32	> 9950	
B13	0.575	5.83	> 9950	
